B1: F1*; the commonest letter at each place (parent)
chain: GAGACCGCAACTGAAAAGTTGTTATCACTTGTCGTAAGACACTTTGGATGGGTTGAAGTTCTGCACGTAGAAGCAAAAGGC

The variants in this data set derive from B1. Description: fraction ligated after 30 min (ligated reads / total reads); higher = more ligase activity. The settings on record: with F1*sub RNA substrate (template-directed ligation), 42 °C. In a few lines:
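The ligase ribozyme variants were produced by PCR amplification of oligo-pool templates, T7 transcription and purification on gel. Their ligated and unligated forms were gel-separated, then reverse transcribed with barcoded primers before MiSeq sequencing. Core bases were filtered at a quality of ≥20, and fraction ligated per variant was ligated reads over total reads.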
For C28G C40A, the fraction ligated was found to be 0.791.

In the case of A27T G34C, the fraction ligated was found to be 0.795.

On to A27T G34T, for which the fraction ligated worked out at 0.771.

Regarding A27T G34A, the fraction ligated came out at 0.806.

Turning to A27C T49C, the fraction ligated was 0.519.

Turning to A27C T49G, the fraction ligated came to 0.733.

With C28A T30A, the fraction ligated came to 0.8.

As to C28A T30C, the fraction ligated is 0.804.

On to C28A T30G, for which the fraction ligated turned out to be 0.808.

Turning to A27T A39G, the fraction ligated came out at 0.84.

With A27T A39T, the fraction ligated is 0.783.

Turning to A27T A39C, the fraction ligated came to 0.782.

Take A27G A37T: the fraction ligated stood at 0.81.

On to A27G A37G, for which the fraction ligated came out at 0.848.

As to A27G A37C, the fraction ligated was found to be 0.817.

Regarding A27G C28A, the fraction ligated worked out at 0.805.

Take A27G C28T: the fraction ligated came out at 0.813.

As to A27G C28G, the fraction ligated came to 0.777.

Regarding C28A G31T, the fraction ligated worked out at 0.826.

C28A G31A: the fraction ligated is 0.84.

Consider C28A G31C, for which the fraction ligated worked out at 0.831.

In the case of A27T T45C, the fraction ligated was determined as 0.762.

For the variant A27T T45G, the fraction ligated was 0.16.

Regarding A27T T45A, the fraction ligated was 0.783.

For the variant A27T G38A, the fraction ligated is 0.811.

Take A27T G38C: the fraction ligated came to 0.784.

For the variant A27T G38T, the fraction ligated is 0.799.

Regarding C28T A36G, the fraction ligated was 0.81.

For C28T A36C, the fraction ligated came to 0.801.

Regarding C28T A36T, the fraction ligated turned out to be 0.799.

As to C28A A36G, the fraction ligated came to 0.795.

For the variant C28A A36C, the fraction ligated came out at 0.806.

In the case of C28A A36T, the fraction ligated stood at 0.811.

For A27G T29A, the fraction ligated came to 0.829.

Regarding A27G T29G, the fraction ligated is 0.806.

As to A27G T29C, the fraction ligated came out at 0.788.

As to C28G G47C, the fraction ligated amounted to 0.484.

With C28G G47T, the fraction ligated is 0.591.

On to C28G G47A, for which the fraction ligated worked out at 0.763.

Take C28G A41C: the fraction ligated was 0.751.

For the variant C28G A41T, the fraction ligated was found to be 0.801.

As for C28G A41G, the fraction ligated stood at 0.744.

For C28G T30C, the fraction ligated amounted to 0.794.

Take C28G T30A: the fraction ligated was 0.802.

Take C28G T30G: the fraction ligated was found to be 0.788.

Turning to C28A T35C, the fraction ligated is 0.807.

Consider C28A T35G, for which the fraction ligated was determined as 0.812.

With C28A T35A, the fraction ligated was 0.792.

In the case of C28A G34T, the fraction ligated stood at 0.808.

C28A G34A: the fraction ligated is 0.812.

Turning to C28A G34C, the fraction ligated came out at 0.779.

With A27T T35C, the fraction ligated turned out to be 0.811.

Take A27T T35A: the fraction ligated was 0.804.

For A27T T35G, the fraction ligated was 0.804.

Turning to C28G G55T, the fraction ligated amounted to 0.763.

In the case of C28G G55A, the fraction ligated is 0.779.

For C28G G55C, the fraction ligated was 0.28.

C28A G55T: the fraction ligated turned out to be 0.8.

Take C28A G55A: the fraction ligated is 0.793.

Consider C28A G55C, for which the fraction ligated came out at 0.19.

In the case of A27T A57G, the fraction ligated is 0.794.

A27T A57T: the fraction ligated was 0.804.

Turning to A27T A57C, the fraction ligated was determined as 0.775.

Consider C28G G50A, for which the fraction ligated was determined as 0.224.

With C28G G50C, the fraction ligated stood at 0.19.

For C28G G50T, the fraction ligated was 0.594.

With C28G T49G, the fraction ligated was determined as 0.763.

For C28G T49C, the fraction ligated stood at 0.674.

As to C28G T49A, the fraction ligated stood at 0.656.

Take A27G T43C: the fraction ligated was 0.806.

Turning to A27G T43G, the fraction ligated is 0.796.

For the variant A27G T43A, the fraction ligated turned out to be 0.829.

As to A27T A36C, the fraction ligated turned out to be 0.868.

A27T A36G: the fraction ligated is 0.862.

Take A27T A36T: the fraction ligated was found to be 0.798.

Regarding A27T T43G, the fraction ligated was 0.784.

A27T T43A: the fraction ligated came out at 0.799.

In the case of A27T T43C, the fraction ligated came out at 0.761.

Regarding C28A T44A, the fraction ligated came to 0.834.

C28A T44C: the fraction ligated was found to be 0.802.

Consider C28A T44G, for which the fraction ligated is 0.798.

In the case of C28T A37C, the fraction ligated was 0.799.

Regarding C28T A37G, the fraction ligated came out at 0.8.

For the variant C28T A37T, the fraction ligated came to 0.81.

For the origin of these results see the supplement of paper PMC6755084.
